The source of these data is publication PMC11477141, “Chemokine Receptor N-Terminus Charge Dictates Reliance on Post-Translational Modifications for Effective Ligand Capture and Following Boosting by Defense Peptides” (International Journal of Molecular Sciences, 2024).

Where two headings read alike, the source gives them in different places. Where no end group is shown, it is not given here. A value given as a limit tells only on which side of the number the result lay.

One experiment has as its target T1, CCR1 (Homo sapiens, UniProt P32246).
T1 construct: expressed in transfected cells; host or cells: CHO-K1, CHO-pgsB618 (GAG-minus), HEK293 WT / DeltaSia / sC
T1 sequence (P32246 1-355): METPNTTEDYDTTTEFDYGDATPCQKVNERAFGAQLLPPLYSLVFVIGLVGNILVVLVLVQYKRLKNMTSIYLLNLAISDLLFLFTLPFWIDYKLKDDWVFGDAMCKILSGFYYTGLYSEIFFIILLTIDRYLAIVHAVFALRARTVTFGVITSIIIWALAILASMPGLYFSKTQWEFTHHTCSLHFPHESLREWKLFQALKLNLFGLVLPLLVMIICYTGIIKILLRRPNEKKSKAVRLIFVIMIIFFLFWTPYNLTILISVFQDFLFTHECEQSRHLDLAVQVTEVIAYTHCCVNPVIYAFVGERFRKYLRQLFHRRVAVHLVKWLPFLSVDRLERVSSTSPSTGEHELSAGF
Kind of experiment: BRET CAMYEL cAMP sensor assay of ligand-induced Gαi signaling via CCR1. It counts as cell-based. The note with it: n = 3. The method, then: For quantification of signaling initiated immediate downstream of receptor activation, we used the cAMP binding CAMYEL sensor to perform bioluminescence resonance energy transfer (BRET)-based assays. Shortly, in this assay increased receptor activation leads to an increase in BRET ratio. For detailed information see the Materials and Methods section.
In signaling assays testing the boosting ability of basic peptides, transfected cells were aliquoted into 96-well plates in the presence of 10 µM peptide or PBS vehicle. After R-Luc substrate addition, chemokines were added to reach final concentrations ranging from 0–100 nM (0, 0.1, 1, 10, and 100 nM) and forskolin was applied before reading emission at 475 and 525 nm.
BRET measurements of Gαi signaling and β-arrestin recruitment: Cells were seeded in 6-well plates (500,000 cells/well) and transiently transfected the following day. For BRET measurements of Gαi signaling, cells were transfected with vectors encoding the human chemokine receptors as indicated (160 ng/well) and the CAMYEL sensor (cAMP sensor, YFP-Epac-RLuc) (840 ng/well) using Lipofectamine (6 µL/well). Briefly, DNA was dissolved in 125 µL OPTI-MEM and Lipofectamine was dissolved in 125 µL OPTI-MEM. The DNA and Lipofectamine solutions were combined into a transfection mixture. The transfection mixture was added dropwise to cells incubated in OPTI-MEM (1 mL/well). Transfections were terminated after 5 h by adding 1 mL of fresh culture medium on top of the OPTI-MEM. The following day the cells were loosened from the plates in PBS with 5 mM glucose and subsequently aliquoted in white 96-well iso plates (~25,000 cells/well). When using C21TP variants and defense peptides (hBD2 and histatin), these were added to a final concentration of 10 μM/well, while an equal amount of PBS was added to control cells. The bioluminescence substrate coelenterazine was added to a final conc. of 5 µM. After 10 min, varying ligand concentrations were added. For BRET measurements of Gαi signaling, forskolin was added 5 min after the addition of the ligand, to a final conc. of 5 µM. The plates were kept in the dark at all times. A Perkin Elmer Envision machine was used for measuring the emission signals at 530 and 480 nm. The BRET signal is determined as the ratio eYFP (530 nm)/Rluc (480 nm).
BRET principle with CAMYEL: For quantification of signaling initiated immediately downstream of receptor activation, we used the cAMP binding CAMYEL sensor to perform bioluminescence resonance energy transfer (BRET) based assays. In this assay we measure changes in intracellular cAMP levels in response to receptor activation. Activation of chemokine receptors lead to a decrease in cAMP through inhibition of adenylate cyclase (AC). In the current setup we initially add forskolin that stimulates AC directly to induce an increase in intracellular cAMP, and we then measure the ability of a ligand (chemokine) to counteract the forskolin-induced increase in cAMP. The cAMP sensor (CAMYEL cAMP sensor, YFP-Epac-RLuc) carries the donor Renilla luciferase (Rluc) and the acceptor YFP. Coelenterazine is a substrate for Rluc that will emit light at around 475 nm upon enzymatic cleavage catalyzed by Rluc. When Rluc and YFP are in close proximity, the energy from the emitted light from coelenterazine can be transferred to YFP, resulting in an excitation of YFP, leading to a BRET signal around 525 nm. EPAC is a cAMP binding protein that changes conformation upon cAMP binding. During low cAMP concentrations, Rluc and YFP are near each other, and a strong BRET signal at 525 nm is obtained. When cAMP levels increase, cAMP will bind to EPAC, creating a conformational change, separating Rluc and YFP, reducing the BRET ratio, and increasing the emission from Rluc at 475 nm. Thus, by measuring the ratio between the cAMP-bound (475 nm) and the cAMP-free (525 nm) state of CAMYEL we obtain a measure of receptor activation. […]
A general note: BRET reads energy transfer from a luciferase to a nearby fluorophore.

The target in experiment [1] is fully sulfated version of the CCR1 N-terminal peptide. Set-up: method as in PMID 30567735. The conditions noted are these: read-out: affinity for the fully sulfated version of the CCR1 N-terminal peptide; cited from earlier work.
Another experiment concerns the target CCR2. The conditions noted are these: mean ± SD; SD; read-out: binding affinity, Kd, for the WT receptor CCR2; cited from earlier work. From the text: (§1) The reliance on electrostatic interactions between basic amino acids in the chemokine and acidic regions in the receptor N-terminus for chemokine receptor binding is illustrated by a study carried out by Hemmerich et al.. To investigate the influence of charge, hydrophobicity, and aromaticity on binding of CCL2 to its cognate receptor CCR2, this group substituted all surface-exposed residues on CCL2 by alanine. […] In contr ...

The next experiment relates to CCR2 D25A/D27A mutant. The note with it: cited from earlier work.
Source text: as §1

For experiment [2], the system named is peptide corresponding to the CCR2 receptor N-terminus. The conditions noted are these: cited from earlier work.
Experiment [3] deals with CCL2 (Homo sapiens) (UniProt P13500). The conditions noted are these: cited from earlier work.
Chain of CCL2 (Homo sapiens) (P13500 24-99): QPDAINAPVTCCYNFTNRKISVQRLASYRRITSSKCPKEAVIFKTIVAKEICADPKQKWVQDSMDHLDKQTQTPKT
The next experiment has as its target CCL5 (Homo sapiens) (UniProt P13501). The conditions noted are these: cited from earlier work.
Another experiment concerns the target CCL7 (Homo sapiens) (UniProt P80098). The note with it: cited from earlier work.
Experiment [4] has as its target CCL2 (Homo sapiens) (UniProt P13500). The conditions noted are these: cited from earlier work. The source holds these as a separate data set.
The target in experiment [5] is chemokine receptor CCR5 (untagged, wild type) (human) (UniProt P51681).
Chain of chemokine receptor CCR5 (untagged, wild type) (human) (P51681 whole entry): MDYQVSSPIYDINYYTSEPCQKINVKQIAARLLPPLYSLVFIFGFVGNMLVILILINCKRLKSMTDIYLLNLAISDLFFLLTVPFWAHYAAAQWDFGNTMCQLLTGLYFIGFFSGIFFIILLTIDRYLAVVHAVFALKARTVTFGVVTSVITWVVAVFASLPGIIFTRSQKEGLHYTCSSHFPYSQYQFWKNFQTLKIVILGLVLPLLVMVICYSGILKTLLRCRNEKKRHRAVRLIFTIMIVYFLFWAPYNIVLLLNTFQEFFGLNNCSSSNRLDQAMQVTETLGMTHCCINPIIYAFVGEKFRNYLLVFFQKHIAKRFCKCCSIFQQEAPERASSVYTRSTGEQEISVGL
Experiment [6] addresses T2, chemokine receptor CCR1 (untagged, wild type) (human) (UniProt P32246).
T2 sequence: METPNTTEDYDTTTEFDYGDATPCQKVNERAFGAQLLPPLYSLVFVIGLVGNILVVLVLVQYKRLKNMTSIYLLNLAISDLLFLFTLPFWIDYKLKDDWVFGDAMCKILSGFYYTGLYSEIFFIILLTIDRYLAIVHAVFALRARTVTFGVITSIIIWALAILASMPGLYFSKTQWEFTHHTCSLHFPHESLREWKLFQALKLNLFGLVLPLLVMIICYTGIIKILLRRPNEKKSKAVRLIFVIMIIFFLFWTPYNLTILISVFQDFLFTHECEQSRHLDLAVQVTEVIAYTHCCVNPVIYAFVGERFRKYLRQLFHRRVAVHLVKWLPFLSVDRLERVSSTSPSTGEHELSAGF

The target in another experiment is naked CCR1 N-terminus (Homo sapiens, UniProt P32246). Description: Fluorescence polarization binding to FAM-labeled CCR1 N-terminal peptide. The note with it: FAM-labeled CCR1 N-terminal peptide. The method, then:
(§2) Fluorescence polarization (FP) assay: The carboxyfluorescein (FAM)-labeled peptides representing the CCR1 and CCR5 N-termini functioned as the probes for quantifying the interaction between the receptor N-terminus and C21TP^81-111. The probe was diluted in FP buffer (1:3, PBS:MilliQ) and 10 µL was added to a final concentration of 250 nM per well in a black 384-well plate (Corning). The C21TP^81-111 peptide (2 mM) was diluted using a two-fold dilution series; 30 µL of the peptide was added to each well to final concentrations ranging from 12.21 nM to 100 µM. Blanks containing 10 µL probe and 30 µL FP buffer were included. The plate was spun down at 1000 rpm for 1 min and the FP signal was measured on a Flex station using SoftMax Pro software 7.0. Each experiment was conducted in triplicate. The binding curves were generated by plotting the FP signal, expressed as millipolarization units (mP), against C21TP^81-111 concentration. The dissociation constant (Kd) value was calculated using GraphPad Prism 9.
(§3) Probes: • CCR1: (5,6-FAM)-[…], • CCR5: (5,6-FAM)-ADYQVSSPIYDINYYTSEP.
A general note: In fluorescence polarisation assays a small probe gives low polarisation when free and higher when bound to something large.

The test system of a further experiment is naked CCR5 N-terminus. Description: Fluorescence polarization binding to FAM-labeled CCR5 N-terminal peptide. The arrangement: species or system human. Here is the method: as §2, §3
Experiment [7] concerns the target T3, FAM-labelled peptide corresponding to the naked (unmodified) CCR1 N-terminus (human, 5,6-carboxyfluorescein (5,6-FAM) on the N-terminus).
T3 construct: first printed residue of the probe; stretch of the N-terminus of the chemokine receptor CCR1, not sulfated, not glycosylated; also called CCR1 N-terminal peptide; CCR1 probe
T3 peptide: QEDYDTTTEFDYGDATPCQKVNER
Kind of experiment: fluorescence polarisation; FAM-labelled receptor N-terminal peptide as probe at 250 nM in FP buffer (1:3, PBS:MilliQ), black 384-well plate; basic peptide titrated in a two-fold series, 12.21 nM to 100 µM (told for C21TP^81-111); triplicates; Kd fitted in GraphPad Prism 9. The note with it: both partners purified.

[8] abbreviates: CHO-K1 cells, 10 µM peptide, chemokine 0-100 nM.

Chain of CCL7 (Homo sapiens) (P80098 24-99): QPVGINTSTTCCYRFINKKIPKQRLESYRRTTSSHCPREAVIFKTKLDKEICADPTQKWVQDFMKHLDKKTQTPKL
Chain of CCL5 (Homo sapiens) (P13501 24-91): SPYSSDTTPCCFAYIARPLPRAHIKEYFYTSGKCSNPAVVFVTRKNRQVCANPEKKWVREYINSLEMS

For the molecule CCL2: human chemokine from Peprotech, the “Gαi signaling response of M1-CCR1 to ligand” value in the experiment with CCR1 (M1-tagged CCR1, HEK293 WT cells) was “to a minor degree”. Further, the Kd in [1] was 100 nM; on CCR2, 0.066 ± 0.01 nM; at CCR2 D25A/D27A mutant (read-out: binding affinity, Kd, for the D25A/D27A mutant version of CCR2) it was at least 3 nM. For the same molecule, the “reduction in affinity, D25A/D27A mutant versus WT CCR2” value in the experiment on CCR2 D25A/D27A mutant was “approximately 50 fold”.

Turning to CCL7: human chemokine from Peprotech, in the experiment with CCR1 (HEK293 DeltaSia and sC), the “Gαi signaling via CCR1 in DeltaSia and sC cells compared to WT cells” value is “persists in DeltaSia and sC to almost the same high level as observed in WT cells”. The Kd in experiment [1] was 100 nM. Moreover, the “increase of chemokine binding by tyrosine sulfation of the CCR2 N-terminus peptide” value in experiment [2] is listed as “up to 36 fold”.

Take CCR1 N-terminus (from UniProt P32246): the Kd in the experiment with CCL2 (Homo sapiens) [3], with CCL5 (Homo sapiens) and in the experiment with CCL7 (Homo sapiens) was 100 nM throughout.

CCR2 (from UniProt P41597): the Kd with CCL2 (Homo sapiens) [4] was above 3 nM.

With “Human CCL5 (from UniProt P13501 24-91) (ligand)”, in [5], the LogEC50 of CCL5-induced Gαi signaling (CAMYEL cAMP BRET) via CCR5 in CHO GAG-minus cells was -9.63 and the LogEC50 of CCL5-induced Gαi signaling (CAMYEL cAMP BRET) via CCR5 in CHO GAG-plus (WT) cells was -7.52. In experiment [6], the LogEC50 of CCL5-induced Gαi signaling (CAMYEL cAMP BRET) via CCR1 in CHO GAG-minus cells is -9.42 and the LogEC50 of CCL5-induced Gαi signaling (CAMYEL cAMP BRET) via CCR1 in CHO GAG-plus (WT) cells was -8.89.

“human beta defensin 2 (GIGDPVTCLKSGAICHPVFCPRRYKQIGTCGLPGTKCCKKP; ends and bridges not checked; cysteine pairing not given here) [hBD2, human anti-microbial / host defense peptide, from Caslo, reference compound]”: in the experiment with CCR1 (setting [8]), the “boosting of CCL5-induced Gαi signaling via CCR1” value is “as efficient in boosting signaling via CCR1 by CCL5 and CCL7 as C21TP^81-111”; the “boosting of CCL7-induced Gαi signaling via CCR1” value is “as efficient in boosting signaling via CCR1 by CCL5 and CCL7 as C21TP^81-111”; the “effect on CCL3-induced Gαi signaling via CCR1” value is recorded as “not affected”. Moreover, the “binding to the naked CCR1 N-terminus” value with naked CCR1 N-terminus is reported as “bind in a dose-dependent manner”. The “binding to the naked CCR5 N-terminus” value in the experiment on naked CCR5 N-terminus is recorded as “neither of the HDPs bound”.

B1: C21TP^81-111, basic C-terminal peptide of the chemokine CCL21 (last 31 aa, residues 81-111) (peptide, UniProt O00585 104-134, looked up)
peptide: RKDRGASKTGKKGKGSKGCKRTERSQTPKGP
notes: also called C-terminal peptide of CCL21; source: bought: Caslo (Lyngby, Denmark)
In the case of B1, in experiment [7], the Kd is around 2890 nM.
